Experiments:
[1] = biological target: T1, dWT LwaCas13a (Leptotrichia wadei, R1046A/H1051A); experiment: EMSA; crRNA complex; 5 mM MgCl2, 37 C; conditions: label: body 32P for EMSA
T1 chain: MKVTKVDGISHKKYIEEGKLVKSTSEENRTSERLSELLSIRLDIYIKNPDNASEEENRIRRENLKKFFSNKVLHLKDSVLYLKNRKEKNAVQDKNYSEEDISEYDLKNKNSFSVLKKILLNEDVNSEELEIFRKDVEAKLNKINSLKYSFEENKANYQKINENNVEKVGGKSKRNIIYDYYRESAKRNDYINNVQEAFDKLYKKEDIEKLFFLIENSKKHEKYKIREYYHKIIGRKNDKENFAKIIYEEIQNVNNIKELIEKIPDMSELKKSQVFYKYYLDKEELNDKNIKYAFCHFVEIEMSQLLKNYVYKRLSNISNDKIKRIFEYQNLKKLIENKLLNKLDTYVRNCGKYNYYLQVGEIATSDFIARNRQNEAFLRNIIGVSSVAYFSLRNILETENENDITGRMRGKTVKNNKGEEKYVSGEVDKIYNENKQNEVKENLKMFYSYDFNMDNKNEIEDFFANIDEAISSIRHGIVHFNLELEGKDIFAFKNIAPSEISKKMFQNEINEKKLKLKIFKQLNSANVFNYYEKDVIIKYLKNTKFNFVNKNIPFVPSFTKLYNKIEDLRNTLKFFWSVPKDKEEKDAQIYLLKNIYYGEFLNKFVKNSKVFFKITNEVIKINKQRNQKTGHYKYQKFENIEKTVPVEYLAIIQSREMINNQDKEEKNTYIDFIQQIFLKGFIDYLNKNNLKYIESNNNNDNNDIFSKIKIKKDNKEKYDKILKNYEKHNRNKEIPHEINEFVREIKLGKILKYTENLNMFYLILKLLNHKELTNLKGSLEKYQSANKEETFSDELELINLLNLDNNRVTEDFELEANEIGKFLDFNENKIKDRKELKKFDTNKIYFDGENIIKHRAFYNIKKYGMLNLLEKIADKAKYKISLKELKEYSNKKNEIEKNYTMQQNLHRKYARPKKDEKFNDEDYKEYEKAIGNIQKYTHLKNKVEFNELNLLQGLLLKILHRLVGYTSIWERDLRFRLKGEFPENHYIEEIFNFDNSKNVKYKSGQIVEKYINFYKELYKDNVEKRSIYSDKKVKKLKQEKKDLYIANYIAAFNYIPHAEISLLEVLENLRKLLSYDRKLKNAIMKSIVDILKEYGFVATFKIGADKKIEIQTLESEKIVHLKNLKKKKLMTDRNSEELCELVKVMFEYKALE

[2] = biological target: T2, RBD #6L LwaCas13a (ADAR1 126-202 in Loop 1) (Leptotrichia wadei / Homo sapiens); experiment: cleavage_in_vitro; collateral cleavage of RNaseAlert, 30 min; conditions: label: body 32P for EMSA
T2 chain: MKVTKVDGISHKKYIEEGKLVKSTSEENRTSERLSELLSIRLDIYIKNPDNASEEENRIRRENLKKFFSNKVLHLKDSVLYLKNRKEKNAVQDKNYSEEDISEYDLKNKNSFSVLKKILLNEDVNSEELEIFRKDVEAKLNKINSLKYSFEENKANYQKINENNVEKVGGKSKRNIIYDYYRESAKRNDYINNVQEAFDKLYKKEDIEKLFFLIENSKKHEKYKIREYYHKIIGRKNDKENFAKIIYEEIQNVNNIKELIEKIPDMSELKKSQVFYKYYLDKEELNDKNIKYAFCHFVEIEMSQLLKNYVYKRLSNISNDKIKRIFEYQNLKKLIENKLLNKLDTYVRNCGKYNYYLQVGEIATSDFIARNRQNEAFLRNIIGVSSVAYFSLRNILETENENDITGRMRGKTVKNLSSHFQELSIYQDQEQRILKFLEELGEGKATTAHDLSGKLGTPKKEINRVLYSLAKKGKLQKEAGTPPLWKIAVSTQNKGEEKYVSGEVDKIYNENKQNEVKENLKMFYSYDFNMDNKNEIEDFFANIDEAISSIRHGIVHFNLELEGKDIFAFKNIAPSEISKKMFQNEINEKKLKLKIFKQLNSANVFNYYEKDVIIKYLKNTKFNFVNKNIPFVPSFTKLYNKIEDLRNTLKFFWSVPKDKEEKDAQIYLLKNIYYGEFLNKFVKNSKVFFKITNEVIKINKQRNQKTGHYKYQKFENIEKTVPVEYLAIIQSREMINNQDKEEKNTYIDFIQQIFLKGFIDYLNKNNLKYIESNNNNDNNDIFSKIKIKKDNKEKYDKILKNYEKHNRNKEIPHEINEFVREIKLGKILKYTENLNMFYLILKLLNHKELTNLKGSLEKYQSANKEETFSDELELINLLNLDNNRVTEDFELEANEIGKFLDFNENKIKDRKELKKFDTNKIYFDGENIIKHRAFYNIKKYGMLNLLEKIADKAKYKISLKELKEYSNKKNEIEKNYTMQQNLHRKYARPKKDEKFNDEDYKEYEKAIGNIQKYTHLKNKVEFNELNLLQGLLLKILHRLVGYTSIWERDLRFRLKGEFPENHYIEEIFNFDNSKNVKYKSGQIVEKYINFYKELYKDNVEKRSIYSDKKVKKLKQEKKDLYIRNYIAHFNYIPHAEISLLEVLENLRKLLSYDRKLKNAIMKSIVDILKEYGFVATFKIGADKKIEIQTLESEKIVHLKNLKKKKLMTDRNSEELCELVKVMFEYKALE

[3] = biological target: T3, RBD #2L LwaCas13a (hnRNP A1 1-104 in Loop 1) (Leptotrichia wadei / Homo sapiens); experiment: as above; conditions: label: body 32P for EMSA
[4] = biological target: T4, RBD #4L LwaCas13a (Leptotrichia wadei / Homo sapiens); experiment: as above; conditions: label: body 32P for EMSA
[5] = biological target: T5, RBD #3L LwaCas13a (Leptotrichia wadei / Homo sapiens); experiment: as above; conditions: label: body 32P for EMSA
[6] = biological target: T6, RBD #1L LwaCas13a (ADAR1 708-801 in Loop 1) (Leptotrichia wadei / Homo sapiens); experiment: as above; conditions: label: body 32P for EMSA
T6 chain: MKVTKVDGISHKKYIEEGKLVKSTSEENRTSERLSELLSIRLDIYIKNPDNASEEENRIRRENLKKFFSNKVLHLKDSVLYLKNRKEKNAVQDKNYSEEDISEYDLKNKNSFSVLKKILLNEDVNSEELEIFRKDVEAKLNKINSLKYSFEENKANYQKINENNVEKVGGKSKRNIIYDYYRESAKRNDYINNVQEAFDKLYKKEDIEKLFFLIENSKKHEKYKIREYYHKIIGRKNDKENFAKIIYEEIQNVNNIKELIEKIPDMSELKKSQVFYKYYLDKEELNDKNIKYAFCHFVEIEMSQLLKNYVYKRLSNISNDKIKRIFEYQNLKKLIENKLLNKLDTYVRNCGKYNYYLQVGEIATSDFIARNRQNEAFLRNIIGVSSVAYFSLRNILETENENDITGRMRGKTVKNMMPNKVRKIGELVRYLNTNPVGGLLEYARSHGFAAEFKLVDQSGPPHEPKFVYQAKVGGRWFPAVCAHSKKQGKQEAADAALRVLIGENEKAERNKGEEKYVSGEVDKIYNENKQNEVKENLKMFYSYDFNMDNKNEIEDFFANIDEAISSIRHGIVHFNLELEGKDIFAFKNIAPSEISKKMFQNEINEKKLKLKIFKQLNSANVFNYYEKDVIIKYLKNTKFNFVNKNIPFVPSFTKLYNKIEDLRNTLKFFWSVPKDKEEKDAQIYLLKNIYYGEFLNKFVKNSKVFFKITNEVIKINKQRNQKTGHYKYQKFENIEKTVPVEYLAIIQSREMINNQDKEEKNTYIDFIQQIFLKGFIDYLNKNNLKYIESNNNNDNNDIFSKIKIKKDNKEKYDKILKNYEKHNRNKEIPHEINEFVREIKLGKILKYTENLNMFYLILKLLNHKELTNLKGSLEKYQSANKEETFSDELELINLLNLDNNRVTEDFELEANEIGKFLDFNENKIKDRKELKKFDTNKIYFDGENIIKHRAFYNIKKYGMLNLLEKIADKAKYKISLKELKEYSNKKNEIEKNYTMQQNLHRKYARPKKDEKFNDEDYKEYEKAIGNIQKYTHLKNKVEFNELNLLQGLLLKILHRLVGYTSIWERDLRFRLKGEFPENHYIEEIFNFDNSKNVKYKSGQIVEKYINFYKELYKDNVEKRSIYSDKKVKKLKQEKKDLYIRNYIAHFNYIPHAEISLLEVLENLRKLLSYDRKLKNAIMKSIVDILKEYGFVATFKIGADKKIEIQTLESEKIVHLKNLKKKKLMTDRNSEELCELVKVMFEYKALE

[7] = biological target: T1, dWT LwaCas13a; experiment: EMSA; crRNA complex; 50 mM Tris pH 8.0, 60 mM NaCl, 5 mM MgCl2, 37 C; conditions: label: body 32P
[8] = biological target: T2, RBD #6L LwaCas13a (ADAR1 126-202 in …); experiment: cleavage_in_vitro; collateral cleavage of RNaseAlert
[9] = biological target: T3, RBD #2L LwaCas13a (hnRNP A1 1-104 in …); experiment: as above
[10] = biological target: T4, RBD #4L LwaCas13a; experiment: as above
[11] = biological target: T5, RBD #3L LwaCas13a; experiment: as above

B1: cr1_N crRNA ; T1_N target (105 nt) (ssRNA ; ssRNA)
RNA 1: GACUACCCCAAAAACGAAGGGGACUAAAACAAUCUGAGGGUCCACCAAACGUAAUGCG
RNA 2: GUCUGAUAAUGGACCCCAAAAUCAGCGAAAUGCACCCCGCAUUACGUUUGGUGGACCCUCAGAUUCAACUGGCAGUAACCAGAAUGGAGAACGCAGUGGGGCGCG
- Kd [1]: 16 nM
- binding signal [2]: 174 % higher than WT
- binding signal [3]: 216 % higher than WT
- binding signal [4]: 518 % higher than WT
- binding signal [5]: 468 % higher than WT
- binding signal [6]: 59 % higher than WT

B2: cr1_N crRNA ; T26_N_2 target (36 nt) (ssRNA ; ssRNA)
RNA 1: B1 RNA 1
RNA 2: ACCCCGCAUUACGUUUGGUGGACCCUCAGAUUCAAC
- Kd [7]: 46 nM

B3: cr3_ssRNA1_0 crRNA ; T3_ssRNA1 target (ssRNA ; ssRNA)
RNA 1: GACUACCCCAAAAACGAAGGGGACUAAAACUAGAUUGCUGUUCUACCAAGUAAUCCAU
RNA 2: GGCCAGUGAAUUCGAGCUCGGUACCCGGGGAUCCUCUAGAAAUAUGGAUUACUUGGUAGAACAGCAAUCUACUCGACCUGCAGGCAUGCAAGCUUGGCGUAAUCAUGGUCAUAGCUGUUUCCUGUGUUUAUCCGCUCACAAUUCCACACAACAUACGAGCCGGAAGCAUAAAG
- binding signal [8]: 38 % higher than WT
- binding signal [9]: 59 % higher than WT
- binding signal [10]: 91 % higher than WT
- binding signal [11]: 102 % higher than WT

— patent publication US20250019680, “ENGINEERED CAS13 FOR ULTRASENSITIVE NUCLEIC ACID DETECTION” (William Marsh Rice University, published 2025)
